B1: IMPDH1(514)-WT (enzyme)
chain: not shown
B2: IMPDH1(514)-S477D (enzyme)
chain: not shown

Biological target: the molecule itself
Experiment: negative stain EM

Protein | binding result
B1 | binds
B2 | binds
